Changes are numbered by the printed parent chain. Numbers in names are those of the source. Like-named read-outs stand apart in the source and are kept apart here. Marks after values point to notes of the source that are not given here.
Tests used:
[1] = Differential scanning calorimetry (DSC), heat denaturation; format: physicochemical; settings: for ΔTm, change in Tm upon addition of a three-fold molar excess of biotin / Tm(+biotin) / ΔH (unfolding enthalpy) / Tm(−biotin): DSC; for Tm(+biotin): biotin 3:1 molar ratio biotin:avidin monomer; for ΔH (unfolding enthalpy): sample without biotin; for Tm(−biotin): without biotin, average ± S.D
Procedure: The transition midpoint of the heat denaturation (Tm) of the avidin proteins was studied using a Calorimetry Sciences Corporation (CSC) Nano II differential scanning calorimeter, as in previous reports (22,23). Proteins (˜0.5 mg/ml) were analyzed both in the absence and presence of biotin (3:1 molar ratio; biotin:avidin monomer).

[2] = Microplate assay: remaining biotin-binding activity after heat treatment; format: physicochemical; settings: 50 mM phosphate buffer, 100 mM NaCl, pH 7.0
Procedure: The inactivation of the proteins during heat-treatment was analysed by using a microplate assay (23). The proteins were heated to 99.9° C. in 50 mM phosphate buffer containing 100 mM NaCl (pH 7.0) for 32 minutes. The remaining activity was probed by measuring the ability of the proteins to bind biotinylated alkaline phosphatase by coating the microplate wells with samples of the heated proteins.

[3] = test system: Proteinase K; test: Proteinase K assay (proteolytic resistance, SDS-PAGE); format: physicochemical; settings: for state after incubation with Proteinase K: 16 hours, in the presence or absence of biotin
Procedure: The proteolytic resistance of the proteins were studied using proteolysis by Proteinase K, as previously described (7). Protein sample (4 μg) was incubated in the presence of Proteinase K ( 1/25 w/w) at 37° C. for a predetermined time period, denatured by boiling in sample buffer (SDS, 2-mercaptoethanol) and subjected to SDS-PAGE followed by coomassie staining.

[4] = IAsys optical biosensor (SPR), 2-iminobiotin binding; settings: 2-iminobiotin surface, 20° C., 50 mM borate buffer pH 9.5, 1 M NaCl
Procedure: The biotin-binding characteristics of the different avidins were studied by a surface plasmon resonance (SPR) optical biosensor (IAsys). The binding affinities to the 2-iminobiotin surface in 50 mM borate buffer (pH 9.5, 1 M NaCl) were measured as previously reported (7).

[5] = Radiobiotin dissociation assay; format: binding; settings: [3H]biotin, various temperatures
Procedure: The dissociation rate of [3H]biotin from avidin, AVR4/5 and the avidin mutants was determined as described in (20) at various temperatures. The activation thermodynamic parameters for AVR4/5(C122S) and avidin were determined by analysis of the dependence of the dissociation rate upon temperature using the global fit of all data, as described in (21).

[6] = Fluorescent biotin dissociation assay; format: binding
Procedure: The binding of labelled biotin to avidins was analysed by a method based on the quenching of a biotin-coupled fluorescent probe ArcDia BF560 (ArcDia Ltd., Turku, Finland) due to binding to avidin, as previously described (18). The measurements were performed using a PerkinElmer LS55 luminometer with thermostated cuvette (25 or 50° C.). The signal measured for 3600 sec (25° C.) or 2400 sec (50° C.) was used to determine the dissociation rate constant.

[7] = cited from earlier work
[8] = test system: Proteinase K; settings: even without bound biotin; refs (8,32); cited from earlier work
[9] = recombinant protein, earlier report; cited from earlier work

B1: ChiAVD: Chimeric avidin: residues 38-58 moved from AVR4/5 to avidin (SEQ ID NO:15) (protein, listed as Gallus gallus)
chain: MVHATSPLLLLLLLSLALVAPGLSARKCSLTGKWTNDLGSNMTIGAVNSRGEFTGTYITAVADNPGNITLSPLLGIQHKRASQPTFGFTVNWKFSESTTVFTGQCFIDRNGKEVLKTMWLLRSSVNDIGDDWKATRVGINIFTRLRTQKE
With B1 the “Tm, transition midpoint of heat denaturation” value (shortened to “Tm, transition midpoint”) [1] was 96.5 °C, the “ΔTm, change in Tm upon addition of a three-fold molar excess of biotin” value [1] was 27.9 °C and the “Tm(+biotin)” value [1] was 124.4 ± 0.2 °C. The “ΔH (unfolding enthalpy)” value [1] was 126 ± 2.39 kcal/mol, the “Tm(−biotin)” value [1] was 96.5 ± 0.2 °C and the “Activity: biotin-binding activity after 32 min treatment at 99.9° C.” value (shortened to “Activity: biotin-binding activity”) [2] was 47%. The “state after incubation with Proteinase K” value [3] was “remaining intact”, the “kass, association rate constant” value [4] was “(1.7 ± 0.1) × 10^4 M^−1s^−1” and the “biotin binding / dissociation rate in radiobiotin dissociation assay” value (“biotin binding / dissociation rate” for short) [5] was “resembled AVR4/5(C122S)”. The “Release 1 h (total release of the probe)” value ([6]; 25° C.) was 13.1%, the “kdiss, dissociation rate constant” value ([6]; 25° C.) was 1.76 10^−5 s^−1 and the “Release 1 h (total release of the probe)” value ([6]; 50° C.) was 93.9%. The “kdiss, dissociation rate constant” value ([6]; 50° C.) was 8.00 10^−4 s^−1.

B2: ChiAVD(I117Y): Residues 38-58 moved from AVR4/5 to avidin and mutation I117Y in 1-3 subunit interface (SEQ ID NO:16) (protein, listed as Gallus gallus)
chain: B1 chain with I139Y
With B2 the “Tm, transition midpoint” value [1] was 111.1 °C, the “ΔTm, change in Tm upon addition of a three-fold molar excess of biotin” value [1] was roughly 19 °C and the “Tm(+biotin)” value [1] was ~130^d ° C. The “ΔH (unfolding enthalpy)” value [1] was 158 ± 9.08 kcal/mol, the “Tm(−biotin)” value [1] was 111.1 ± 0.2 °C and the “Activity: biotin-binding activity” value [2] was 98%. For the same molecule, the “state after incubation with Proteinase K” value [3] was “remaining intact”, the “kass, association rate constant” value [4] was “(1.6 ± 0.2) × 10^4 M^−1s^−1” and the “biotin binding / dissociation rate” value [5] was “resembled AVR4/5(C122S)”. For the same molecule, the “Release 1 h (total release of the probe)” value ([6]; 25° C.) was 9.5%, the “kdiss, dissociation rate constant” value ([6]; 25° C.) was 1.94 10^−5 s^−1 and the “Release 1 h (total release of the probe)” value ([6]; 50° C.) was 94.8%. For the same molecule, the “kdiss, dissociation rate constant” value ([6]; 50° C.) was 7.33 10^−4 s^−1.

B3: AVR4/5: Avidin-related protein encoded identically by chicken genes AVR4 and AVR5 (protein, UniProt P56734 25-150, looked up)
Avidin-related protein 4/5: ARKCSLTGKWTNNLGSIMTIRAVNSRGEFTGTYLTAVADNPGNITLSPLLGIQHKRASQPTFGFTVHWNFSESTTVFTGQCFIDRNGKEVLKTMWLLRSSVNDISYDWKATRVGYNNFTRLCTVEE
For B3, the “biotin binding / dissociation rate” value [5] is given as “almost as tightly as avidin”, the “Tm, transition midpoint” value ([7]; from ref (8)) is given as 106.4 °C and the “resistance to cleavage by Proteinase K” value [8] is given as “resistant to cleavage”. The “biotin binding” value [9] was “almost as tightly as avidin”.

B4: AVR4/5(C122S): AVR4/5 with the cysteine forming intermonomeric disulphide bridges mutated to serine; insect cell produced (protein, UniProt P56734 25-150, looked up, variant C122S)
Avidin-related protein 4/5: B3 Avidin-related protein 4/5 with C122S
In the case of B4, the “Activity: biotin-binding activity” value [2] is reported as 72%, the “resistance to the proteolytic activity of Proteinase K” value ([3]; even without biotin) is reported as “total resistance” and the “kass, association rate constant” value [4] is reported as “(9.3 ± 0.4) × 10^3 M^−1s^−1”. For the same molecule, the “biotin binding / dissociation rate” value [5] was “tight biotin binding”, the “Release 1 h (total release of the probe)” value ([6]; 25° C.) was 12.5% and the “kdiss, dissociation rate constant” value ([6]; 25° C.) was 2.77 10^−5 s^−1. For the same molecule, the “Release 1 h (total release of the probe)” value ([6]; 50° C.) was 93.7%, the “kdiss, dissociation rate constant” value ([6]; 50° C.) was 7.88 10^−4 s^−1 and the “ΔH (unfolding enthalpy)” value ([7]; DSC, sample without biotin, results from ref (8)) was 137 ± 7.89 kcal/mol. For the same molecule, the “Tm(+biotin)” value ([7]; DSC, with biotin, results from ref (8)) was 125.4 ± 0.8 °C, the “Tm(−biotin)” value ([7]; DSC, without biotin, results from ref (8)) was 106.4 ± 0.8 °C and the “ΔTm, change in Tm upon addition of a three-fold molar excess of biotin” value ([7]; DSC, results from ref (8)) was 19.5 °C.

B5: AVR4/5(C122S)-b: AVR4/5(C122S) produced in E. coli, non-glycosylated, three additional N-terminal residues (Gln-Thr-Val) (protein, UniProt P56734 25-150, looked up, variant C122S)
Avidin-related protein 4/5: B3 Avidin-related protein 4/5 with C122S
modifications: N-terminal Gln-Thr-Val extension
In the case of B5, the “ΔTm, change in Tm upon addition of a three-fold molar excess of biotin” value [1] is reported as 17.2 °C, the “Tm(+biotin)” value [1] is reported as 127.1 °C and the “ΔH (unfolding enthalpy)” value [1] is reported as 110 kcal/mol. For the same molecule, the “Tm(−biotin)” value [1] was 109.9 °C, the “Activity: biotin-binding activity” value [2] was 56% and the “state after incubation with Proteinase K” value [3] was “remaining intact”. The “biotin binding / dissociation rate” value [5] was “slightly slower dissociation rate”, the “Release 1 h (total release of the probe)” value ([6]; 25° C.) was 10.9% and the “kdiss, dissociation rate constant” value ([6]; 25° C.) was 2.31 10^−5 s^−1. For the same molecule, the “Release 1 h (total release of the probe)” value ([6]; 50° C.) was 88.3% and the “kdiss, dissociation rate constant” value ([6]; 50° C.) was 6.20 10^−4 s^−1.

— patent US7268216B2, “Chimeric avidin mutants” (Licentia Oy, priority 2004, dated 2007)
